Measurements as given in patent publication US8246957 (dated 2012).

What was measured:
Experiment in all cases: cell-based or functional assay
[1] = target: T1, gp120 of HIV-1 primary isolate ZA009 (clade C) (HIV-1 strain ZA009)
[2] = target: gp120 of HIV-1 primary isolate strain 23135 (clade B) (HIV-1 strain 23135)
[3] = target: gp120 of HIV-1 primary isolate Ug046 (clade D) (HIV-1 strain Ug046)
[4] = target: T1, gp120 of HIV-1 primary isolate ZA009 …; remark: listed apart in the source

B1: Fv JL427 (scFv)
scFv: QSVLTQPPSVSGAPGQRVTISCSGSSSNFGLNYVTWQGHFPGTAPKLLIYRNDQRPLGVPARFSGSKSGTSASLAISGLRSEDEADYYCQSYDNSLSGWVFGGGYQLYVLGSSGGGGSGGGGSGGSAQVQLQQSGGGLVQPGRSLRLSCAASGFTFSSYGMHWVRQAPGKGLEWVSYIGRSGSHTNYADSVKGRFTISRDNSKNTLYLQINSLRAEDTAVYYCARGLPNYGMDIWGQGTTVTVSS
IC50, HIV-1 neutralization (p24, PBMC hosts) [1]: 0.3 µg Ab fragment/ml
IC90, HIV-1 neutralization (p24, PBMC hosts) [1]: 5.7 µg Ab fragment/ml
IC50, HIV-1 neutralization (p24, PBMC hosts) [2]: 22.4 µg Ab fragment/ml
IC90, HIV-1 neutralization (p24, PBMC hosts) [2]: 36.7 µg Ab fragment/ml
IC50, HIV-1 neutralization (p24, PBMC hosts) [3]: 5.5 µg Ab fragment/ml
IC90, HIV-1 neutralization (p24, PBMC hosts) [3]: 12.7 µg Ab fragment/ml
IC50, HIV-1 neutralization, independent preparations (N=3, mean and s.d.) [4]: 0.3 µg/mL
